Experimental findings from patent US11433099B2, “Immunotherapy with B*08 restricted peptides and combination of peptides against cancers and related methods” (Immatics Biotechnologies GmbH, priority 2018, dated 2022) are described below.

The experiment has as its target HLA-B*08:01 (Homo sapiens, UniProt P01889). Put plainly: MHC binding assay (UV-ligand exchange, beta2m ELISA). To be noted: MHC class I binding score; binding to HLA-B*08:01 ranged by peptide exchange yield (UV-ligand exchange, β2m ELISA). From the text: Candidate peptides for T cell based therapies according to the present invention were further tested for their MHC binding capacity (affinity). The individual peptide-MHC complexes were produced by UV-ligand exchange, where a UV-sensitive peptide is cleaved upon UV-irradiation and exchanged with the peptide of interest as analyzed. Only peptide candidates that can effectively bind and stabilize the peptide-receptive MHC molecules prevent dissociation of the MHC complexes. To determine the yield of the exchange reaction, an ELISA was performed based on the detection of the light chain (β2m) of stabilized MHC complexes. The assay was performed as generally described in Rodenko et al. (Rodenko et al., 2006).
96 well MAXISorp plates (NUNC) were coated over night with 2 ug/ml streptavidin in PBS at room temperature, washed 4× and blocked for 1 h at 37° C. in 2% BSA containing blocking buffer. Refolded HLA-A*02:01/MLA-001 monomers served as standards, covering the range of 15-500 ng/ml. Peptide-MHC monomers of the UV-exchange reaction were diluted 100-fold in blocking buffer. Samples were incubated for 1 h at 37° C., washed four times, incubated with 2 ug/ml HRP conjugated anti-β2m for 1 h at 37° C., washed again and detected with TMB solution that is stopped with […]. Absorption was measured at 450 nm. Candidate peptides that show a high exchange yield (preferably higher than 50%, most preferred higher than 75%) are generally preferred for a generation and production of antibodies or fragments thereof, and/or T cell receptors or fragments thereof, as they show sufficient avidity to the MHC molecules and prevent dissociation of the MHC complexes.
A general note: In an ELISA, binding on a coated surface is turned into a signal by an enzyme label.
As for “2 (QIMPKAGL; listed as Homo sapiens) [compound 2]”, the Peptide exchange entry is reported as “+++ (50% = +++)”.
For “4 (QVMPKTGL; listed as Homo sapiens) [compound 4]” the value was “++ (20% = ++)”; for “6 (NRQKRFVL; listed as Homo sapiens) [compound 6]”, “++ (20% = ++)”; for “7 (AARLRPAL; listed as Homo sapiens) [compound 7]”, “++ (20% = ++)”.
With “12 (DFYLRSSAF; listed as Homo sapiens) [compound 12]” the entry was “+++ (50% = +++)”.
With “14 (ELILKRCL; listed as Homo sapiens) [compound 14]” the entry was “+++ (50% = +++)”.
“15 (LLKKIEHA; listed as Homo sapiens) [compound 15]”: the Peptide exchange entry is given as “++ (20% = ++)”.
With “16 (NRKPRTPF; listed as Homo sapiens) [compound 16]” the entry was “++ (20% = ++)”.
For “17 (LLILKTVL; listed as Homo sapiens) [compound 17]” the value was “+++ (50% = +++)”.
For “23 (DIKKTNESL; listed as Homo sapiens) [compound 23]” the value was “++ (20% = ++)”; for “24 (DLVLKRCL; listed as Homo sapiens) [compound 24]”, “++++ (75% = ++++)”; for “26 (DARCKLAEL; listed as Homo sapiens) [compound 26]”, “++ (20% = ++)”.
Consider “28 (DPKSRLKSL; listed as Homo sapiens) [compound 28]”, for which the Peptide exchange result was “++ (20% = ++)”.
“30 (DLQKKAQAL; listed as Homo sapiens) [compound 30]”: the Peptide exchange entry is “++ (20% = ++)”.
For “32 (NPYLKLVL; listed as Homo sapiens) [compound 32]” the value was “++ (20% = ++)”.
For “39 (DAKSKIEQI; listed as Homo sapiens) [compound 39]” the value was “++ (20% = ++)”.
With “43 (DLKKLVDSL; listed as Homo sapiens) [compound 43]” the entry was “+++ (50% = +++)”; with “44 (HLTNRVLSL; listed as Homo sapiens) [compound 44]”, “+++ (50% = +++)”.
For the substance “46 (DLRNKIIAA; listed as Homo sapiens) [compound 46]”, the Peptide exchange result is recorded as “+++ (50% = +++)”.
For “50 (TLRLLVAAL; listed as Homo sapiens) [compound 50]” the value was “+++ (50% = +++)”; for “51 (ERRVKVSSL; listed as Homo sapiens) [compound 51]”, “+++ (50% = +++)”; for “52 (ELILKHSL; listed as Homo sapiens) [compound 52]”, “+++ (50% = +++)”.
For “53 (DLRKLKRQL; listed as Homo sapiens) [compound 53]” the value was “++ (20% = ++)”; for “54 (DLSRRDVSL; listed as Homo sapiens) [compound 54]”, “++ (20% = ++)”; for “55 (VLLSRRTAL; listed as Homo sapiens) [compound 55]”, “++ (20% = ++)”.
On to “56 (ILCGSRKMPL; listed as Homo sapiens) [compound 56]”, for which the Peptide exchange result was “++ (20% = ++)”.
For “59 (FDFRGKTKVF; listed as Homo sapiens) [compound 59]” the value was “++ (20% = ++)”.
For “61 (SIKKELVVL; listed as Homo sapiens) [compound 61]” the value was “++ (20% = ++)”.
With “64 (FILGREAGAL; listed as Homo sapiens) [compound 64]” the entry was “++ (20% = ++)”; with “65 (NLLMRNVL; listed as Homo sapiens) [compound 65]”, “++ (20% = ++)”; with “67 (DMNTKRAIHTL; listed as Homo sapiens) [compound 67]”, “++ (20% = ++)”.
Regarding “69 (ELARQRLL; listed as Homo sapiens) [compound 69]”, the Peptide exchange result is “++ (20% = ++)”.
For “70 (RPKGTPPL; listed as Homo sapiens) [compound 70]”, the Peptide exchange entry is given as “++ (20% = ++)”.
Consider “72 (LPLAHHIQL; listed as Homo sapiens) [compound 72]”, for which the Peptide exchange entry is reported as “+++ (50% = +++)”.
With “73 (MFPARGVPL; listed as Homo sapiens) [compound 73]” the entry was “++ (20% = ++)”.
Consider “77 (LPKLPVPPL; listed as Homo sapiens) [compound 77]”, for which the Peptide exchange entry is reported as “+++ (50% = +++)”.
For “79 (GLARIYSF; listed as Homo sapiens) [compound 79]” the value was “++ (20% = ++)”; for “81 (MYRKEQYL; listed as Homo sapiens) [compound 81]”, “++ (20% = ++)”; for “84 (YITRQFVQF; listed as Homo sapiens) [compound 84]”, “++ (20% = ++)”.
On to “85 (QKPRKKKL; listed as Homo sapiens) [compound 85]”, for which the Peptide exchange result was “++ (20% = ++)”.
With “87 (QILQHHVL; listed as Homo sapiens) [compound 87]” the entry was “+++ (50% = +++)”.
For “88 (MLLCLSLEL; listed as Homo sapiens) [compound 88]” the value was “++ (20% = ++)”; for “90 (TIGLGLHSL; listed as Homo sapiens) [compound 90]”, “++ (20% = ++)”; for “92 (TLKAMVQAW; listed as Homo sapiens) [compound 92]”, “+++ (50% = +++)”.
With “93 (LMKEKIQEM; listed as Homo sapiens) [compound 93]” the entry was “+++ (50% = +++)”.
Consider “94 (DQLLRHVM; listed as Homo sapiens) [compound 94]”, for which the Peptide exchange result was “+++ (50% = +++)”.
For “95 (SRNPRGFFL; listed as Homo sapiens) [compound 95]” the value was “++ (20% = ++)”.
With “96 (RPAGVFEL; listed as Homo sapiens) [compound 96]” the entry was “++ (20% = ++)”; with “97 (EPVTKAEM; listed as Homo sapiens) [compound 97]”, “+++ (50% = +++)”; with “98 (EPVNTNVVL; listed as Homo sapiens) [compound 98]”, “++ (20% = ++)”.
With “99 (NVKIRFLE; listed as Homo sapiens) [compound 99]” the entry was “++ (20% = ++)”; with “100 (VLLMGPLHL; listed as Homo sapiens) [compound 100]”, “++ (20% = ++)”.
Consider “101 (FAFEKLIQF; listed as Homo sapiens) [compound 101]”, for which the Peptide exchange result is “+++ (50% = +++)”.
For “102 (IMKKIRESY; listed as Homo sapiens) [compound 102]” the value was “+++ (50% = +++)”.
As to “103 (IANLRVKNI; listed as Homo sapiens) [compound 103]”, the Peptide exchange entry is recorded as “+++ (50% = +++)”.
For “104 (FAFGEPREL; listed as Homo sapiens) [compound 104]” the value was “++ (20% = ++)”; for “105 (APLKMLALV; listed as Homo sapiens) [compound 105]”, “++ (20% = ++)”.
Take “106 (HLHLLETSI; listed as Homo sapiens) [compound 106]”: the Peptide exchange entry is “++ (20% = ++)”.
For “107 (LPKGLKDWQA; listed as Homo sapiens) [compound 107]” the value was “++ (20% = ++)”; for “108 (RSYYHPTNL; listed as Homo sapiens) [compound 108]”, “++ (20% = ++)”; for “109 (IPASHPVLTL; listed as Homo sapiens) [compound 109]”, “++ (20% = ++)”.
For “110 (DAMTKHTL; listed as Homo sapiens) [compound 110]” the value was “+++ (50% = +++)”; for “111 (GAGLRITAPL; listed as Homo sapiens) [compound 111]”, “++ (20% = ++)”; for “112 (NALDPLSAL; listed as Homo sapiens) [compound 112]”, “++ (20% = ++)”.
Consider “113 (MEKGLASL; listed as Homo sapiens) [compound 113]”, for which the Peptide exchange entry is listed as “++ (20% = ++)”.
Turning to “114 (PVKPKFYL; listed as Homo sapiens) [compound 114]”, the Peptide exchange entry is “++ (20% = ++)”.
For “115 (MRILKRFLAC; listed as Homo sapiens) [compound 115]” the value was “++ (20% = ++)”.
For “116 (FTQNPRVQL; listed as Homo sapiens) [compound 116]” the value was “++ (20% = ++)”.
For “117 (VGPNGFKSL; listed as Homo sapiens) [compound 117]”, the Peptide exchange entry is on record as “++ (20% = ++)”.
